Results published in paper PMC10821397, “A New Approach for Preparing Stable High-Concentration Peptide Nanoparticle Formulations” (Pharmaceuticals, 2023).

Tests used:
Type in all cases: physicochemical
[1] = Nanomilling screen (resonant acoustic milling), particle size by dynamic light scattering; conditions: DLS; for Average Radius: nanomilling screen, milled at 100 mg/mL in water, 50 G, 2 h, average of 10 acquisitions, 25 °C, ± SD; for % Pd: normalized polydispersity, screen, 100 mg/mL
Protocol: A UV-Star clear, flat-bottom 96-well plate was used as a high-throughput mixing container, as described previously. […] Each well plate was sealed with a Thermo Fisher Scientific ALPS 50 V Manual Heat Sealer (Thermo Fisher Scientific Inc., Waltham, MA, USA). Each sealed well plate was then placed on a Resodyn LabRAM II Resonant Acoustic mixer (Resodyn Acoustic Mixers, Butte, MT, USA) and milled at 50 G acceleration for 2 h.
(§1) After milling, a 5 μL aliquot of the nanosuspension sample was taken and diluted in 995 μL of D.I. water for analysis using a Wyatt DynaProTM Plate Reader II (Waters Corporation, Santa Barbara, CA, USA) dynamic light scattering instrument. A 30 μL aliquot of the diluted suspension was dispensed into a Corning® low-volume black polystyrene 384-well plate for analysis. The particle size of each sample was reported as an average of 10 acquisitions with an acquisition time of 5 s at 25 °C. Autocorrelation curves were fitted using either the cumulants or regularization method, and the average particle radius and diameters D50 and D90 were obtained and reported along with their standard deviations. The normalized polydispersity (%Pd) was calculated as the polydispersity divided by the estimated hydrodynamic radius from the cumulants fit of the autocorrelation function multiplied by 100.

[2] = Scale-up nanosuspension, particle size by dynamic light scattering; conditions: for % Pd: normalized polydispersity, scale-up; for % Pd / Average Radius: 100 mg/mL, DLS; for Average Radius: scale-up batch, average of 10 acquisitions, 25 °C, ± SD
Protocol: A 4 mL clear glass vial was used as a scale-up container. […] The vial was then placed on a Resodyn LabRAM II Resonant Acoustic mixer and milled at 50 G acceleration for 2 h. The resulting nanosuspension was recovered by using a syringe equipped with an 18 G needle.
as §1

[3] = Particle size of nanosuspensions on storage (dynamic light scattering); conditions: DLS
Protocol: as §1

[4] = Physical stability (monomer content) by size-exclusion chromatography; conditions: both formulations (PVP K29-32/SDS, HPC-SL/SDS), 28 days, 4 °C, RT and 37 °C; no higher-order oligomers
Protocol: An Agilent 1290 Infinity II (Agilent Technologies, Santa Clara, CA, USA) was used for chromatographic analysis. Data were acquired and processed using Empower 3 software (Waters, Milford, MA, USA). For all three peptides (GNE-A, cyclosporin A, and insulin), separations were performed in an Xbridge BEH125 SEC column ([…], 7.8 × 150 mm) for physical stability analysis. Isocratic method was applied in which 80% of the 5 mM phosphate buffer at pH 7 in acetonitrile was used as the mobile phase. The injection volume was 8 μL and the column temperature was 30 °C.

[5] = 25% HPC-SL, 1% SDS (wt% to peptide)
[6] = 25% PVP K29-32, 1% SDS (wt% to peptide)
[7] = 25% Pluronic F127 (wt% to peptide)

Insulin (recombinant human) [Insulin Monomer]
Average Radius [1, 5]: 130 ± 4 nm | Average Radius [1, 6]: 112 ± 2 nm | Average Radius [1, 7]: 419 ± 24 nm | Average Radius ([1]; 25% Tween 80 (wt% to peptide)): 903 ± 124 nm | % Pd [1, 7]: 14.6% | % Pd ([1]; 25% Tween 80 (wt% to peptide)): Multimodal | average radius of the nanoparticles ([2]; both formulations (HPC-SL/SDS and PVP K29-32/SDS), screen and scale-up batch): 110–130 nm | % Pd [2, 5]: 33.6% | % Pd [2, 6]: 19.9% | Average Radius [2, 5]: 135 ± 14 nm | Average Radius [2, 6]: 121 ± 5 nm | particle size on storage ([3]; insulin nanosuspension with HPC-SL/SDS, 4 °C and room temperature, up to 1 month): some particle growth | particle size on storage ([3]; insulin nanosuspension with HPC-SL/SDS, 37 °C, up to 1 month): significant aggregation | particle size on storage ([3]; insulin nanosuspension with PVP K29-32/SDS, 28 days at 4 °C or room temperature): No significant particle size growth | particle size on storage ([3]; insulin nanosuspension with PVP K29-32/SDS, up to a month at 37 °C): remained in the accepted nano-scale range | insulin monomer concentration (SEC) [4]: remains quantitative
